From IntAct's records for PubMed 35512704

B1: Speckle-type POZ protein (Homo sapiens), O43791 (parent)
chain: MSRVPSPPPPAEMSSGPVAESWCYTQIKVVKFSYMWTINNFSFCREEMGEVIKSSTFSSGANDKLKWCLRVNPKGLDEESKDYLSLYLLLVSCPKSEVRAKFKFSILNAKGEETKAMESQRAYRFVQGKDWGFKKFIRRDFLLDEANGLLPDDKLTLFCEVSVVQDSVNISGQNTMNMVKVPECRLADELGGLWENSRFTDCCLCVAGQEFQAHKAILAARSPVFSAMFEHEMEESKKNRVEINDVEPEVFKEMMCFIYTGKAPNLDKMADDLLAAADKYALERLKVMCEDALCSNLSVENAAEILILADLHSADQLKTQAVDFINYHASDVLETSGWKSMVVSHPHLVAEAYRSLASAQCPFLGPPRKRLKQS

Variants of: B1
Conditions: with pdk1_human PDK1, Q15118

effect of a mutation on the interaction	Variant
with no effect	F133L

Variants of: B1
Conditions: with PIK3C2B

effect of a mutation on the interaction	Variant
with no effect	F133L

Variants of: B1
Conditions: with pk3ca_human PIK3CA

effect of a mutation on the interaction	Variant
with no effect	F133L

Variants of: B1
Conditions: with pk3cg_human PIK3CG

effect of a mutation on the interaction	Variant
with no effect	F133L

Variants of: B1
Conditions: with p85b_human PIK3R2, O00459

effect of a mutation on the interaction	Variant
with no effect	F133L

Variants of: B1
Conditions: with dpod1_human POLD1, P28340
dpod1_human POLD1, P28340, sequence (P28340 whole entry): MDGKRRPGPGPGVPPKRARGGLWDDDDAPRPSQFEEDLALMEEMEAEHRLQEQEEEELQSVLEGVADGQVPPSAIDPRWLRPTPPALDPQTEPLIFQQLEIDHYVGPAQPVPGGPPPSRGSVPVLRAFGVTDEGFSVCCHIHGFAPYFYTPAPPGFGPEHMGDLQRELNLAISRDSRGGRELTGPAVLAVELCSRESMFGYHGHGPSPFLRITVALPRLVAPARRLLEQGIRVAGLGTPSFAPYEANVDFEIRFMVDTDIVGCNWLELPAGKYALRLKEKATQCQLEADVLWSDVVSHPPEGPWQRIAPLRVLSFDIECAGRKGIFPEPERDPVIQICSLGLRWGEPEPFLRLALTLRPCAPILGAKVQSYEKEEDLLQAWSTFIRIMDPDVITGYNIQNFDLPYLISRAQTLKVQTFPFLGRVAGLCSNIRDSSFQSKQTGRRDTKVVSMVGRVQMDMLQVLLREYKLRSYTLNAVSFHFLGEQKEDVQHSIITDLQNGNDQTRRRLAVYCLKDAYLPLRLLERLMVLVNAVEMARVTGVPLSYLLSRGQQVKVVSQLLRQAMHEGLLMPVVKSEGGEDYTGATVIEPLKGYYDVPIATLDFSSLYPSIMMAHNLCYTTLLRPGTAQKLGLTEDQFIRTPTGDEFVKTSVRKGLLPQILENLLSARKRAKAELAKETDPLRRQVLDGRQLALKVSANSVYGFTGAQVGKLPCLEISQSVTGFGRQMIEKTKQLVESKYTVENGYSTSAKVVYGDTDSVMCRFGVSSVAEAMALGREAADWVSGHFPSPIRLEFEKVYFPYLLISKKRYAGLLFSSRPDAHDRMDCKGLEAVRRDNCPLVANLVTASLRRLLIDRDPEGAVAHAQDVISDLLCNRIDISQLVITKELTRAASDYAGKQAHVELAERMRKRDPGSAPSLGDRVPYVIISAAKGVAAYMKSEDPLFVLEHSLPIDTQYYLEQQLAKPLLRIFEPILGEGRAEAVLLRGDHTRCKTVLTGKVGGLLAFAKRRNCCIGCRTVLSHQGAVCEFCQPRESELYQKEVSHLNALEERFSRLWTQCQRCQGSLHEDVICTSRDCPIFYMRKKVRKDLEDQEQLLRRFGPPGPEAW

effect of a mutation on the interaction	Variant
with no effect	F133L

Variants of: B1
Conditions: with dpoe1_human POLE

effect of a mutation on the interaction	Variant
with no effect	F133L

Variants of: B1
Conditions: with ppard_human PPARD

effect of a mutation on the interaction	Variant
with no effect	F133L

Variants of: B1
Conditions: with prdm1_human PRDM1, O75626

effect of a mutation on the interaction	Variant
with no effect	F133L

Variants of: B1
Conditions: with prex2_human PREX2, Q70Z35

effect of a mutation on the interaction	Variant
with no effect	F133L

Variants of: B1
Conditions: with aapk2_human PRKAA2, P54646

effect of a mutation on the interaction	Variant
with no effect	F133L

Variants of: B1
Conditions: with prss8_human PRSS8, Q16651
prss8_human PRSS8, Q16651, sequence (Q16651 whole entry, looked up): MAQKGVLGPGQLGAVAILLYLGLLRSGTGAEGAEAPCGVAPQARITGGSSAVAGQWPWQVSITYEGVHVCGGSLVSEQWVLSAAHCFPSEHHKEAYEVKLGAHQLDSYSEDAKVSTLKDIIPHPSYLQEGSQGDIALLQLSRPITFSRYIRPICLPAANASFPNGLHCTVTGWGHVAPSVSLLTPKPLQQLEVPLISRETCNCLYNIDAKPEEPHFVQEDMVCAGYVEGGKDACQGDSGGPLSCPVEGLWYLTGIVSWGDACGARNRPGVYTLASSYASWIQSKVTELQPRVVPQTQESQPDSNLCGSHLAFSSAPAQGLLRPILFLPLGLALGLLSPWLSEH

effect of a mutation on the interaction	Variant
with no effect	F133L

Variants of: B1
Conditions: with tf65_human RELA

effect of a mutation on the interaction	Variant
with no effect	F133L

Variants of: B1
Conditions: with rictr_human RICTOR

effect of a mutation on the interaction	Variant
with no effect	F133L

Variants of: B1
Conditions: with rnf43_human RNF43, Q68DV7

effect of a mutation on the interaction	Variant
with no effect	F133L

Variants of: B1
Conditions: with ros1_human ROS1, P08922

effect of a mutation on the interaction	Variant
with no effect	F133L

Variants of: B1
Conditions: with rl11_human RPL11, P62913

effect of a mutation on the interaction	Variant
with no effect	F133L

Variants of: B1
Conditions: with rl5_human RPL5, P46777

effect of a mutation on the interaction	Variant
with no effect	F133L

Variants of: B1
Conditions: with rs15_human RPS15, P62841

effect of a mutation on the interaction	Variant
with no effect	F133L

Variants of: B1
Conditions: with rptor_human RPTOR

effect of a mutation on the interaction	Variant
with no effect	F133L

Variants of: B1
Conditions: with rxra_human RXRA

effect of a mutation on the interaction	Variant
with no effect	F133L

Variants of: B1
Conditions: with sdha_human SDHA

effect of a mutation on the interaction	Variant
with no effect	F133L

Variants of: B1
Conditions: with setbp_human SETBP1, Q9Y6X0

effect of a mutation on the interaction	Variant
with no effect	F133L

Variants of: B1
Conditions: with sf3b1_human SF3B1, O75533

effect of a mutation on the interaction	Variant
with no effect	F133L

Variants of: B1
Conditions: with skp2_human SKP2, Q13309

effect of a mutation on the interaction	Variant
with no effect	F133L

Variants of: B1
Conditions: with smad1_human SMAD1, Q15797

effect of a mutation on the interaction	Variant
with no effect	F133L

Variants of: B1
Conditions: with smca4_human SMARCA4, P51532

effect of a mutation on the interaction	Variant
with no effect	F133L

Variants of: B1
Conditions: with snf5_human SMARCB1, Q12824

effect of a mutation on the interaction	Variant
with no effect	F133L

Variants of: B1
Conditions: with smo_human SMO

effect of a mutation on the interaction	Variant
with no effect	F133L

Variants of: B1
Conditions: with smuf1_human SMURF1, Q9HCE7

effect of a mutation on the interaction	Variant
with no effect	F133L

Variants of: B1
Conditions: with socs1_human SOCS1, O15524

effect of a mutation on the interaction	Variant
with no effect	F133L

Variants of: B1
Conditions: with sox10_human SOX10, P56693

effect of a mutation on the interaction	Variant
with no effect	F133L

Variants of: B1
Conditions: with sox2_human SOX2, P48431

effect of a mutation on the interaction	Variant
with no effect	F133L

Variants of: B1
Conditions: with src_human SRC

effect of a mutation on the interaction	Variant
with no effect	F133L

Variants of: B1
Conditions: with whr1_human WHR1, P49842
whr1_human WHR1, P49842, sequence (P49842 whole entry): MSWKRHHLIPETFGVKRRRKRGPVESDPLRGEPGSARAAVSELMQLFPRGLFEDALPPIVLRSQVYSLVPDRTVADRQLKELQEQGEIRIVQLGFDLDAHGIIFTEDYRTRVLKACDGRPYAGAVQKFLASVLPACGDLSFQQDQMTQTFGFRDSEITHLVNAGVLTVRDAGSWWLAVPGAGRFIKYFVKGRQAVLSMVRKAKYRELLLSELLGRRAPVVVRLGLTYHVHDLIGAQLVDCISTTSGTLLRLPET

effect of a mutation on the interaction	Variant
with no effect	F133L

Variants of: B1
Conditions: with stk38_human STK38, Q15208

effect of a mutation on the interaction	Variant
with no effect	F133L

Variants of: B1
Conditions: with eloc_human ELOC

effect of a mutation on the interaction	Variant
with no effect	F133L

Variants of: B1
Conditions: with tfe2_human TCF3, P15923

effect of a mutation on the interaction	Variant
with no effect	F133L

Variants of: B1
Conditions: with tead1_human TEAD1, P28347

effect of a mutation on the interaction	Variant
with no effect	F133L

Variants of: B1
Conditions: with tead3_human TEAD3, Q99594

effect of a mutation on the interaction	Variant
with no effect	F133L

Variants of: B1
Conditions: with tead4_human TEAD4, Q15561

effect of a mutation on the interaction	Variant
with no effect	F133L

Variants of: B1
Conditions: with tet2_human TET2, Q6N021

effect of a mutation on the interaction	Variant
with no effect	F133L

Variants of: B1
Conditions: with TMEM106B

effect of a mutation on the interaction	Variant
with no effect	F133L

Variants of: B1
Conditions: with tnr14_human TNFRSF14, Q92956

effect of a mutation on the interaction	Variant
with no effect	F133L

Variants of: B1
Conditions: with tshr_human TSHR

effect of a mutation on the interaction	Variant
with no effect	F133L

Variants of: B1
Conditions: with vegfa_human VEGFA

effect of a mutation on the interaction	Variant
with no effect	F133L

Variants of: B1
Conditions: with vhl_human VHL

effect of a mutation on the interaction	Variant
with no effect	F133L

Variants of: B1
Conditions: with wee1_human WEE1, P30291

effect of a mutation on the interaction	Variant
with no effect	F133L

Variants of: B1
Conditions: with wwtr1_human WWTR1, Q9GZV5
wwtr1_human WWTR1, Q9GZV5, sequence (Q9GZV5 whole entry): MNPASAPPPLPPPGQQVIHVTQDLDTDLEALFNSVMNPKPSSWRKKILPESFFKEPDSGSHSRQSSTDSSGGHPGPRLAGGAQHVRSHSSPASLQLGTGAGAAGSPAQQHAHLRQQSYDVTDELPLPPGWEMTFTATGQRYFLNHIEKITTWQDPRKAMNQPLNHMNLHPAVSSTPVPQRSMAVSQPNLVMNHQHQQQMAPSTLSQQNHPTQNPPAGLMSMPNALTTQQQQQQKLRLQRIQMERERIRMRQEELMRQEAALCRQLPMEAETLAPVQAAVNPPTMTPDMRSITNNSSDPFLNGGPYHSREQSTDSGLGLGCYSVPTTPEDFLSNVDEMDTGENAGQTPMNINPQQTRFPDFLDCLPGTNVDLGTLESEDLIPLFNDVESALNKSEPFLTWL

effect of a mutation on the interaction	Variant
with no effect	F133L

Variants of: B1
Conditions: with xpo1_human XPO1, O14980
xpo1_human XPO1, O14980, sequence (O14980 whole entry): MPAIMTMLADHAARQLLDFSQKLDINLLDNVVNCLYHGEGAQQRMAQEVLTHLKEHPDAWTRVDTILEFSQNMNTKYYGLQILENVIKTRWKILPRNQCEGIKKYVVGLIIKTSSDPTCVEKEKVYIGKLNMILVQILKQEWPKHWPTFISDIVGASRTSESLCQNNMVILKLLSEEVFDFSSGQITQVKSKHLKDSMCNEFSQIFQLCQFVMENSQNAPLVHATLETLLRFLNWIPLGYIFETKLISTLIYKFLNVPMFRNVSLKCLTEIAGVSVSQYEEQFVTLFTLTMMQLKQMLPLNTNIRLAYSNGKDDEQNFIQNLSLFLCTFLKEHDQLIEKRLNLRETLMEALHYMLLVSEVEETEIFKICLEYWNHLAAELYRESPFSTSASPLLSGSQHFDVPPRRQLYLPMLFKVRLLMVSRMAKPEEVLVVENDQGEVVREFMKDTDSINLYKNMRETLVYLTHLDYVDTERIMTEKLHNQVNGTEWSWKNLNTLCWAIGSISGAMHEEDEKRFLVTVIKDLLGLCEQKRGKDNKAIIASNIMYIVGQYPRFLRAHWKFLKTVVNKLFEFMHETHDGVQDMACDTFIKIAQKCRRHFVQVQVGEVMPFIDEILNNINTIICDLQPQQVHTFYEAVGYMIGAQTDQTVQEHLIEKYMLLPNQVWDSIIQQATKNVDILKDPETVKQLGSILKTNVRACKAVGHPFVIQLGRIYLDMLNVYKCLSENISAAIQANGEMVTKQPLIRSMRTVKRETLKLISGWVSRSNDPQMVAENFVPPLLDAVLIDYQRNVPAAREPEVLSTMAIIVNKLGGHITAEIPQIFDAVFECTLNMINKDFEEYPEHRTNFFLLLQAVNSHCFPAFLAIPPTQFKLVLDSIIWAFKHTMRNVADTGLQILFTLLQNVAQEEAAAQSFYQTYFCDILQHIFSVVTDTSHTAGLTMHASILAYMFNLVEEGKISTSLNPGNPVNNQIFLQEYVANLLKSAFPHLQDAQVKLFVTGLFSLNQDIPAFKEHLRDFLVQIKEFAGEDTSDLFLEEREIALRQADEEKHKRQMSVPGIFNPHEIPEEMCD

effect of a mutation on the interaction	Variant
with no effect	F133L

Variants of: B1
Conditions: with asxl2_human ASXL2, Q76L83

effect of a mutation on the interaction	Variant
causing an interaction	F133L

Variants of: B1
Conditions: with ufo_human AXL

effect of a mutation on the interaction	Variant
causing an interaction	F133L

Variants of: B1
Conditions: with birc2_human BIRC2, Q13490
birc2_human BIRC2, Q13490, sequence (Q13490 whole entry): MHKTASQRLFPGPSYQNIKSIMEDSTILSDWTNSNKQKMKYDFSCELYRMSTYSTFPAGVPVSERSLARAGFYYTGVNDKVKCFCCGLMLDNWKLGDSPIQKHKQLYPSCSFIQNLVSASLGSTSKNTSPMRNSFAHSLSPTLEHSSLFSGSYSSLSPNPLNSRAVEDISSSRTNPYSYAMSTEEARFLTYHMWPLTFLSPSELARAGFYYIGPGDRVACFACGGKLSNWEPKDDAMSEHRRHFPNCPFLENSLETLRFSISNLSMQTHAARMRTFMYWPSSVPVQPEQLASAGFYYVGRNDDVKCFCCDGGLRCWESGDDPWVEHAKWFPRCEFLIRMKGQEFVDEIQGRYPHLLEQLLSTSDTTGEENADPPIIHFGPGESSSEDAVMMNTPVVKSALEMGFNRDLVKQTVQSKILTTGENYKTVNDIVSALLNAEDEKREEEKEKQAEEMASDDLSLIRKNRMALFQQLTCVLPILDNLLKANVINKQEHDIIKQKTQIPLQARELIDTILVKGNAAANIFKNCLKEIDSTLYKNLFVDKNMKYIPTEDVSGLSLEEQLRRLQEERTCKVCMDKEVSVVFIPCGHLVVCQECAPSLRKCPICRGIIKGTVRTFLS

effect of a mutation on the interaction	Variant
causing an interaction	F133L

Variants of: B1
Conditions: with cul4b_human CUL4B

effect of a mutation on the interaction	Variant
causing an interaction	F133L

Variants of: B1
Conditions: with jak1_human JAK1, P23458
jak1_human JAK1, P23458, sequence (P23458 whole entry): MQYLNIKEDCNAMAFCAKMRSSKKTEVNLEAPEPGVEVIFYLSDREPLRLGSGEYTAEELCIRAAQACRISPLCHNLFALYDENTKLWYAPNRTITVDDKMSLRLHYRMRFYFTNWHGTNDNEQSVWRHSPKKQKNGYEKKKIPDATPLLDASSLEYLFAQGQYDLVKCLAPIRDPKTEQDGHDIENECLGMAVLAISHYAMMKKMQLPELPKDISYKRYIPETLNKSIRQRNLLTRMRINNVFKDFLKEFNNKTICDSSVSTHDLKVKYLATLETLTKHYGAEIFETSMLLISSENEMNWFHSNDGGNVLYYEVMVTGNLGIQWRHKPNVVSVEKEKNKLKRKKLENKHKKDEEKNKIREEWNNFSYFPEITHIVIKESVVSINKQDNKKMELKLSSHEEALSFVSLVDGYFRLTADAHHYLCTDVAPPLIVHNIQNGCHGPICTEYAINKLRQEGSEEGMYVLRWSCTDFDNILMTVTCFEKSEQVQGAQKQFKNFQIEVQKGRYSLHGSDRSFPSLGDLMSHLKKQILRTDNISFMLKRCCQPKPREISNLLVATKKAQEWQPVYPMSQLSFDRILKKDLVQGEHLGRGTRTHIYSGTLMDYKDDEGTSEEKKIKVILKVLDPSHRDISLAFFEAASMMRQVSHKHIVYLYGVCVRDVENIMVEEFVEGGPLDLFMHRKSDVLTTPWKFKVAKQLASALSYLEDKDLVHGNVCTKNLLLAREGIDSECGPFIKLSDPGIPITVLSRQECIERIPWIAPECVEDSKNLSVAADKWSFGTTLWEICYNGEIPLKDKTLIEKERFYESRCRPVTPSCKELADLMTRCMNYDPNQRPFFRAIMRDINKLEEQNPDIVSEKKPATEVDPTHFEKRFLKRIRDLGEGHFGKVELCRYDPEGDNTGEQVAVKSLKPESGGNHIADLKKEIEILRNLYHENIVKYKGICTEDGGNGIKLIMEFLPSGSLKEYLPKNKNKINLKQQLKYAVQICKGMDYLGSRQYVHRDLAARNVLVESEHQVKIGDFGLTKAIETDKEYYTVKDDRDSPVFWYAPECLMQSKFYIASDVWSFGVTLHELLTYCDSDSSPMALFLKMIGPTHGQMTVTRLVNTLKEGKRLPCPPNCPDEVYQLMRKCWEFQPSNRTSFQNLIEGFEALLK

effect of a mutation on the interaction	Variant
causing an interaction	F133L

Variants of: B1
Conditions: with pk3cb_human PIK3CB

effect of a mutation on the interaction	Variant
causing an interaction	F133L

Variants of: B1
Conditions: with tsc2_human TSC2, P49815

effect of a mutation on the interaction	Variant
causing an interaction	F133L

Variants of: B1
Conditions: with birc2_human BIRC2, Q13490
Remark: another data set of the same source

effect of a mutation on the interaction	Variant
increasing interaction strength	F133L

Variants of: B1
Conditions: with cblb_human CBLB

effect of a mutation on the interaction	Variant
causing an interaction	F133L

Variants of: B1
Conditions: with e2f5_human E2F5, Q15329

effect of a mutation on the interaction	Variant
causing an interaction	F133L

Variants of: B1
Conditions: with gata1_human GATA1, P15976

effect of a mutation on the interaction	Variant
increasing interaction strength	F133L

Variants of: B1
Conditions: with igf1r_human IGF1R

effect of a mutation on the interaction	Variant
increasing interaction strength	F133L

Variants of: B1
Conditions: with esr1_human ESR1, P03372

effect of a mutation on the interaction	Variant
decreasing interaction strength	F133L
